{
  "source": "patent US20240247301A1",
  "about": "“DIAGNOSTIC ASSAY FOR CLASSIC INBORN GALACTOSEMIA” (Ohio State Innovation Foundation, priority 2022, published 2024)",
  "test_system": "O=P(O)(O)O[C@H]1O[C@H](CO)[C@@H](O)[C@H](O)[C@H]1O",
  "assay": "YidA phosphatase activity (malachite green), dephosphorylation of Glc-1-P",
  "assay_type": "biochemical, Salmonella typhimurium",
  "source_text": "The sugar phosphate phosphatase produced from an engineered cell can be identical to a naturally occurring one, such as YidA or YihX, but placed within a cell in which it is not naturally produced. Examples of this approach are given throughout. The sequence for YidA from Salmonella typhimurium can be found, for example, in NC_492731.1. This sequence corresponds to SEQ ID NO: 1. The gene ID is 1255358. The sequence for YihX from Salmonella typhimurium can be found, for example, in NC_462906.1. This corresponds to SEQ ID NO: 2. The gene ID is 1255552. In one example, genes encoding these proteins can be placed within a cell in which it is not naturally occurring.\nNearly homogeneous recombinant Salmonella YidA by overexpressing it in E. coli SixPack cells were obtained (Lipinszki et al. 2018) (FIG. 3A). N-terminal fusions with a small ubiquitin-like modifier (SUMO) domain were engineered to enhance solubility (Marblestone et al. 2006) and a His6 tag to facilitate affinity purification (FIG. 3A). […] Since YidA is a Mg^2+-dependent phosphatase, its activity with Glc-1-P in the presence of 0-5 mM MgCl2 was first tested and determined that 3 mM MgCl2 was optimal (FIG. 5). […]",
  "note": "“And” between values parts separate entries of the source, which are not always exact repeats. Identical values can stand only once.",
  "data": [
    {"substance": "Salmonella typhimurium YidA, recombinant wild type, SEQ ID NO: 1 (Salmonella enterica subsp. enterica serovar Typhimurium str. LT2)", "values": [
      {"measurement": "Km", "setting": "other: mean ± SE of two independent trials, pH 8.0", "result": "1340 ± 20 µM and 1350 ± 10 µM"},
      {"measurement": "Km", "setting": "other: single trials, ± curve-fit error, pH 8, 37° C., 3 mM MgCl2, 37.0 °C", "result": "1340 ± 300 µM and 1350 ± 300 µM"}
    ]}
  ]
}
